Data taken from the Human Domainome abundance scans (Beltran et al. 2025).

B1: Friend leukemia integration 1 transcription factor, residues 116 to 197; numbered along this chain, Q01543 (parent)
chain: NMTTNERRVIVPADPTLWTQEHVRQWLEWAIKEYSLMEIDTSFFQNMDGKELCKMNKEDFLRATTLYNTEVLLSHLSYLRES

Variants of: B1
Assay: abundance fitness (aPCA) (normalised: wild type 0, dead -1); higher = more abundant; growth selection in yeast, the domain comes from the species named
Conditions: Homo sapiens

Abundance fitness: each site, then its substitutions
W29: A 0.101 | Y -0.058 | R 0.003 | C -0.041 | I -0.029 | V -0.14 | D 0.189 | E 0.212 | N 0.432 | H -0.033 | S 0.112 | P -1.01 | T 0.13 | K 0.005 | L -0.116 | G 0.168 | Q 0.084
K32: D 0.007 | L -0.169 | W -0.159 | Q -0.08 | V -0.157 | M -0.209 | I -0.189 | H -0.351 | N -0.011 | G -0.2 | C -0.401 | P -0.359 | F -0.332 | T -0.001 | E 0.003 | R -0.052
E28: Y -0.12 | I 0.141 | Q 0.005 | G -0.189 | P -0.745 | T -0.017 | N -0.377 | K 0.058 | C 0.009 | S -0.123 | F -0.366 | R -0.018 | M -0.187 | L -0.013 | W -0.285 | A 0.006 | V -0.035
A30: D -0.709 | V -0.092 | E -0.071 | I -0.061 | Q 0.18 | T -0.058 | P -1.07 | K -0.161 | C -0.058 | W -0.554 | L -0.186 | N -0.136 | R -0.21 | S 0.031 | M -0.057 | G -0.253 | F -0.287 | H -0.162
L27: H -0.463 | S -0.438 | E -0.857 | A -0.229 | R -0.876 | W -0.856 | D -0.532 | G -0.284 | Y -0.834 | T -0.383 | K -0.708 | C -0.384 | F 0.079 | I -0.132 | V 0.035
W26: M -0.445 | N -0.732 | E -0.921 | Q -0.818 | P -1.04 | S -0.402 | T -1.01 | K -0.813 | C -0.626
Q25: P -0.915 | V 0.078 | F -0.106 | S -0.246 | W -0.251 | R -0.006 | H -0.083 | G -0.039 | E -0.334 | N 0.092 | A -0.066 | K 0.041 | Y -0.143 | C 0.036 | L -0.093 | T -0.045 | M -0.187
I31: V -0.001 | P -1.22 | Q -0.075 | H -0.034 | L -0.305 | F -0.549 | R 0.063 | K -0.059 | G -0.384 | W -0.48 | S 0.041 | T -0.023 | M 0.08
Y34: N 0.245 | Q -0.346 | L -0.227 | P -0.897 | G -0.215 | V -0.978 | R -0.207 | T -0.684 | H -0.106 | M -0.185 | E -0.181 | K -0.032 | F 0.109 | S -0.108 | A -0.274
E33: F -0.803 | H -0.204 | L -0.981 | W -0.382 | T -0.243 | G -0.8 | P -0.973 | N -0.354 | D -0.117 | I -0.437 | K -0.021 | V -0.435 | Y -0.278 | S -0.238 | R -0.06 | Q -0.055
R24: C -0.347 | F -0.044 | S 0.093 | T -0.058 | E -0.348 | G 0.039 | H -0.161 | M -0.131 | W 0.054 | Y -0.278 | L -0.011 | I -0.183 | P -0.804 | K -0.09
